In the supplement of paper PMC10567573:

B1: SPACA3 (parent)
chain: FTSGFNAAALDYEADGSTNNGIFQ

Variants of: B1
Assay: protein stability index of a GFP-peptide fusion (GPS, HEK-293T) (PSI 1-6); higher = more stable
Conditions: c terminus: a fixed tail appended
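Also: lentivirally expressed fusions sorted by FACS into six bins by GFP to DsRed ratio, PSI derived from sequencing read proportions per bin multiplied by bin number.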

| Variant | protein stability index |
| --- | --- |
| FTSLFNAAALDYEADGSTNNGIFQ [G4L] | 1.7 |
| FTSCFNAAALDYEADGSTNNGIFQ [G4C] | 1.94 |
| FTSYFNAAALDYEADGSTNNGIFQ [G4Y] | 1.68 |
| FTSHFNAAALDYEADGSTNNGIFQ [G4H] | 2.59 |
| FTSRFNAAALDYEADGSTNNGIFQ [G4R] | 1.87 |
| FTSGFNAAALDPEADGSTNNGIFQ [Y12P] | 2.09 |
| FTSGFNAAALDEEADGSTNNGIFQ [Y12E] | 2.7 |
| FTSGFNAAALDGEADGSTNNGIFQ [Y12G] | 2.22 |
| FTSGFNAAALDHEADGSTNNGIFQ [Y12H] | 2.04 |
| FTSGFNAAALDKEADGSTNNGIFQ [Y12K] | 2.04 |
| FTSGFNAAALDVEADGSTNNGIFQ [Y12V] | 2.34 |
| FTSGFNAAALDREADGSTNNGIFQ [Y12R] | 1.78 |
| FTSGFNAAALDYEADGSTENGIFQ [N19E] | 2.23 |
| FTSGFNAAALDYEADGSTVNGIFQ [N19V] | 1.76 |
| FTSGFNAAALDYEADGSTCNGIFQ [N19C] | 2.31 |
| FTSGFNAAALDYEADGSTYNGIFQ [N19Y] | 1.83 |
| FTSGFNAIALDYEADGSTNNGIFQ [A8I] | 2.34 |
| FTSGFNATALDYEADGSTNNGIFQ [A8T] | 1.98 |
| FTSGFNALALDYEADGSTNNGIFQ [A8L] | 1.73 |
| FTSGFNAHALDYEADGSTNNGIFQ [A8H] | 1.85 |
| FTSGFNAQALDYEADGSTNNGIFQ [A8Q] | 1.84 |
| FTSGWNAAALDYEADGSTNNGIFQ [F5W] | 3.06 |
| FTSGENAAALDYEADGSTNNGIFQ [F5E] | 4.38 |
| FTSGFNAAALDYEHDGSTNNGIFQ [A14H] | 2.09 |

| Variant | protein stability index |
| --- | --- |
| FTSGFNAAALDYECDGSTNNGIFQ [A14C] | 2.37 |
| FTSGFNAAALDYEQDGSTNNGIFQ [A14Q] | 2.1 |
| FTSGFNAAALDYEADGWTNNGIFQ [S17W] | 2.1 |
| FTSGFNAAALDYEADGMTNNGIFQ [S17M] | 1.48 |
| FTSGFNAAALDYEADGETNNGIFQ [S17E] | 2.13 |
| FTSGFNAAALDYEADGQTNNGIFQ [S17Q] | 2.35 |
| FTSGFNAAALIYEADGSTNNGIFQ [D11I] | 2.27 |
| FTSGFNAAALNYEADGSTNNGIFQ [D11N] | 1.57 |
| FTSGFDAAALDYEADGSTNNGIFQ [N6D] | 2.99 |
| FTSGFVAAALDYEADGSTNNGIFQ [N6V] | 2.08 |
| FTSGFEAAALDYEADGSTNNGIFQ [N6E] | 2.88 |
| FTSGFWAAALDYEADGSTNNGIFQ [N6W] | 3.02 |
| FTSGFNAAATDYEADGSTNNGIFQ [L10T] | 2.01 |
| FTSGFNAAAWDYEADGSTNNGIFQ [L10W] | 1.95 |
| FTSGFNAAAADYEADGSTNNGIFQ [L10A] | 1.62 |
| YTSGFNAAALDYEADGSTNNGIFQ [F1Y] | 2.24 |
| WTSGFNAAALDYEADGSTNNGIFQ [F1W] | 3.6 |
| LTSGFNAAALDYEADGSTNNGIFQ [F1L] | 4.01 |
| FTSGFNAAALDYEASGSTNNGIFQ [D15S] | 2 |
| FTSGFNAAALDYEAMGSTNNGIFQ [D15M] | 1.63 |
| FTSGFNAAALDYEAHGSTNNGIFQ [D15H] | 1.74 |
| FTSGFNAAALDYEAVGSTNNGIFQ [D15V] | 1.43 |
| FTSGFNAAALDYEARGSTNNGIFQ [D15R] | 1.96 |
| FTGGFNAAALDYEADGSTNNGIFQ [S3G] | 4.05 |

| Variant | protein stability index |
| --- | --- |
| FTPGFNAAALDYEADGSTNNGIFQ [S3P] | 2.29 |
| FTNGFNAAALDYEADGSTNNGIFQ [S3N] | 2.56 |
| FTWGFNAAALDYEADGSTNNGIFQ [S3W] | 2.26 |
| FTTGFNAAALDYEADGSTNNGIFQ [S3T] | 1.84 |
| FTSGFNRAALDYEADGSTNNGIFQ [A7R] | 2 |
| FTSGFNCAALDYEADGSTNNGIFQ [A7C] | 2.08 |
| FTSGFNIAALDYEADGSTNNGIFQ [A7I] | 2.13 |
| FTSGFNNAALDYEADGSTNNGIFQ [A7N] | 1.73 |
| FTSGFNQAALDYEADGSTNNGIFQ [A7Q] | 2.02 |
| FHSGFNAAALDYEADGSTNNGIFQ [T2H] | 2.02 |
| FRSGFNAAALDYEADGSTNNGIFQ [T2R] | 2.71 |
| FESGFNAAALDYEADGSTNNGIFQ [T2E] | 4.66 |
| FPSGFNAAALDYEADGSTNNGIFQ [T2P] | 2.07 |
| FTSGFNAAALDYEADGSPNNGIFQ [T18P] | 1.83 |
| FTSGFNAAALDYEADGSVNNGIFQ [T18V] | 1.5 |
| FTSGFNAAALDYEADGSTNNGIFP [Q24P] | 1.99 |
| FTSGFNAAALDYEADGSTNNGIFM [Q24M] | 1.46 |
| FTSGFNAAALDYEADGSTNNGIFD [Q24D] | 2.02 |
| FTSGFNAAALDYEADGSTNNGIFT [Q24T] | 2.23 |
| FTSGFNAAALDYEADGSTNNGIFF [Q24F] | 1.92 |
| FTSGFNAAALDYEADGSTNNGIFL [Q24L] | 1.71 |
| FTSGFNAAALDYHADGSTNNGIFQ [E13H] | 2.24 |
| FTSGFNAAALDYIADGSTNNGIFQ [E13I] | 1.36 |
| FTSGFNAAALDYEADGSTNNGLFQ [I22L] | 1.74 |

| Variant | protein stability index |
| --- | --- |
| FTSGFNAAALDYEADGSTNNGSFQ [I22S] | 1.86 |
| FTSGFNAAALDYEADGSTNNGMFQ [I22M] | 2.5 |
| FTSGFNAAALDYEADGSTNVGIFQ [N20V] | 2 |
| FTSGFNAAALDYEADGSTNYGIFQ [N20Y] | 2.19 |
| FTSGFNAAALDYEADGSTNAGIFQ [N20A] | 2.31 |
| FTSGFNAAALDYEADGSTNQGIFQ [N20Q] | 1.84 |
| FTSGFNAAALDYEADFSTNNGIFQ [G16F] | 1.96 |
| FTSGFNAAALDYEADQSTNNGIFQ [G16Q] | 1.9 |
| FTSGFNAAALDYEADHSTNNGIFQ [G16H] | 2.19 |
| FTSGFNAAALDYEADGSTNNGICQ [F23C] | 1.9 |
| FTSGFNAAALDYEADGSTNNGIAQ [F23A] | 2.1 |
| FTSGFNAAALDYEADGSTNNGITQ [F23T] | 2.92 |
| FTSGFNAAALDYEADGSTNNGIVQ [F23V] | 2.11 |
| FTSGFNAAALDYEADGSTNNGIEQ [F23E] | 2.28 |
| FTSGFNAAALDYEADGSTNNGIGQ [F23G] | 2.54 |
| FTSGFNAAALDYEADGSTNNTIFQ [G21T] | 2.02 |
| FTSGFNAAALDYEADGSTNNVIFQ [G21V] | 1.98 |
| FTSGFNAAALDYEADGSTNNCIFQ [G21C] | 1.97 |
| FTSGFNAAALDYEADGSTNNFIFQ [G21F] | 1.8 |
| FTSGFNAANLDYEADGSTNNGIFQ [A9N] | 1.82 |
| FTSGFNAAHLDYEADGSTNNGIFQ [A9H] | 2.18 |
| FTSGFNAATLDYEADGSTNNGIFQ [A9T] | 1.69 |
